# Test results reported in patent US20230220042A1 (SHANGHAI JIAO TONG UNIVERSITY SCHOOL OF MEDICINE, published 2023).
# Substitutions are numbered along the chain they refer to. Names may count otherwise.
# T1: Biotin-FcγRIIB (human FcγRIIB, Sino Biological) (human, UniProt P31994 43-217, limits assumed, biotin-labeled)
# T1 construct: Used at 1 µg/ml with Streptavidin-APC for flow cytometry and sorting; also called CD32b
# T1 sequence (looked up): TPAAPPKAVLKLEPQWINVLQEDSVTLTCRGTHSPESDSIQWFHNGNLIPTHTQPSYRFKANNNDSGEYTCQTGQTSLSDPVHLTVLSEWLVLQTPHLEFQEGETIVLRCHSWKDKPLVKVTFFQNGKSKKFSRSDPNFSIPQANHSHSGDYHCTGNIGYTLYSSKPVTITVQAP
# B1: human IgG2 anti-mouse CD40 surface displayed antibody, H268D (antibody, name in EU numbering)
# light chain (with the P2A rest): DTVLTQSPALAVSPGERVTISCRASDSVSTLMHWYQQKPGQQPKLLIYLASHLESGVPARFSGSGSGTDFTLTIDPVEADDTATYYCQQSWNDPWTFGGGTKLELKRTVAAPSVFIFPPSDEQLKSGTASVVCLLNNFYPREAKVQWKVDNALQSGNSQESVTEQDSKDSTYSLSSTLTLSKADYEKHKVYACEVTHQGLSSPVTKSFNRGECGSGATNFSLLKQAGDVEENPG
# heavy chain: EVQLVESDGGLVQPGRSLKLPCAASGFTFSDYYMAWVRQAPTKGLEWVASISYDGSSTYYRDSVKGRFTISRDNAKSTLYLQMDSLRSEDTATYYCGRHSSYFDYWGQGVMVTVSSASTKGPSVFPLAPCSRSTSESTAALGCLVKDYFPEPVTVSWNSGALTSGVHTFPAVLQSSGLYSLSSVVTVPSSNFGTQTYTCNVDHKPSNTKVDKTVERKCCVECPPCPAPPVAGPSVFLFPPKPKDTLMISRTPEVTCVVVDVSDEDPEVQFNWYVDGVEVHNAKTKPREEQFNSTFRVVSVLTVVHQDWLNGKEYKCKVSNKGLPAPIEKTISKTKGQPREPQVYTLPPSREEMTKNQVSLTCLVKGFYPSDIAVEWESNGQPENNYKTTPPMLDSDGSFFLYSKLTVDKSRWQQGNVFSCSVMHEALHNHYTQKSLSLSPGKLEPPPSTVSNMATVAVLVVLGAAIVTGAVVAFVMKMRRRNTGGKGGDYALAPGSQTSDLSLPDCKVMVHDPHSLA
# notes: m1 with this Fc mutation (Eu numbering); copies: 2 + 2
# B2: human IgG2 anti-mouse CD40 surface displayed antibody, V266G/P271C (antibody, name in EU numbering)
# light chain (with the P2A rest): B1 light chain (with the P2A rest)
# heavy chain: B1 heavy chain with V261G, D263H, P266C
# notes: m1 with these Fc mutations (Eu numbering); copies: 2 + 2
# B3: human IgG2 anti-mouse CD40 surface displayed antibody, S267M/P271G (antibody, name in EU numbering)
# light chain (with the P2A rest): B1 light chain (with the P2A rest)
# heavy chain: B1 heavy chain with S262M, D263H, P266G
# notes: as for B2
# B4: human IgG2 anti-mouse CD40 surface displayed antibody, S267G (antibody, name in EU numbering)
# light chain (with the P2A rest): B1 light chain (with the P2A rest)
# heavy chain: B1 heavy chain with S262G, D263H
# notes: as for B1
# B5: human IgG2 anti-mouse CD40 surface displayed antibody, V266A/P271C (antibody, name in EU numbering)
# light chain (with the P2A rest): B1 light chain (with the P2A rest)
# heavy chain: B1 heavy chain with V261A, D263H, P266C
# notes: as for B2
# B6: human IgG2 anti-mouse CD40 surface displayed antibody, S267E/P271Y (antibody, name in EU numbering)
# light chain (with the P2A rest): B1 light chain (with the P2A rest)
# heavy chain: B1 heavy chain with S262E, D263H, P266Y
# notes: as for B2
# B7: human IgG2 anti-mouse CD40 surface displayed antibody, S267M (antibody, name in EU numbering)
# light chain (with the P2A rest): B1 light chain (with the P2A rest)
# heavy chain: B1 heavy chain with S262M, D263H
# notes: as for B1
# B8: human IgG2 anti-mouse CD40 surface displayed antibody, S267E/P271C (antibody, name in EU numbering)
# light chain (with the P2A rest): B1 light chain (with the P2A rest)
# heavy chain: B1 heavy chain with S262E, D263H, P266C
# notes: as for B2
# B9: human IgG2 anti-mouse CD40 surface displayed antibody, S267A/P271C (antibody, name in EU numbering)
# light chain (with the P2A rest): B1 light chain (with the P2A rest)
# heavy chain: B1 heavy chain with S262A, D263H, P266C
# notes: as for B2
# B10: human IgG2 anti-mouse CD40 surface displayed antibody, H268K (antibody, name in EU numbering)
# light chain (with the P2A rest): B1 light chain (with the P2A rest)
# heavy chain: B1 heavy chain with D263K
# notes: as for B1
# B11: human IgG2 anti-mouse CD40 surface displayed antibody, S267A/P271G (antibody, name in EU numbering)
# light chain (with the P2A rest): B1 light chain (with the P2A rest)
# heavy chain: B1 heavy chain with S262A, D263H, P266G
# notes: as for B2
# B12: human IgG2 anti-mouse CD40 surface displayed antibody, H268E (antibody, name in EU numbering)
# light chain (with the P2A rest): B1 light chain (with the P2A rest)
# heavy chain: B1 heavy chain with D263E
# notes: as for B1
# B13: human IgG2 anti-mouse CD40 surface displayed antibody, S267E/P271V (antibody, name in EU numbering)
# light chain (with the P2A rest): B1 light chain (with the P2A rest)
# heavy chain: B1 heavy chain with S262E, D263H, P266V
# notes: as for B2
# B14: human IgG2 anti-mouse CD40 surface displayed antibody, S267E/P271W (antibody, name in EU numbering)
# light chain (with the P2A rest): B1 light chain (with the P2A rest)
# heavy chain: B1 heavy chain with S262E, D263H, P266W
# notes: as for B2
# B15: human IgG2 anti-mouse CD40 surface displayed antibody, S267Q (antibody, name in EU numbering)
# light chain (with the P2A rest): B1 light chain (with the P2A rest)
# heavy chain: B1 heavy chain with S262Q, D263H
# notes: as for B1
# B16: human IgG2 anti-mouse CD40 surface displayed antibody, S267A (antibody, name in EU numbering)
# light chain (with the P2A rest): B1 light chain (with the P2A rest)
# heavy chain: B1 heavy chain with S262A, D263H
# notes: as for B1
# B17: human IgG2 anti-mouse CD40 surface displayed antibody, V266A/P271G (antibody, name in EU numbering)
# light chain (with the P2A rest): B1 light chain (with the P2A rest)
# heavy chain: B1 heavy chain with V261A, D263H, P266G
# notes: as for B2
# B18: human IgG2 anti-mouse CD40 surface displayed antibody, S267E/D270H (antibody, name in EU numbering)
# light chain (with the P2A rest): B1 light chain (with the P2A rest)
# heavy chain: B1 heavy chain with S262E, D263H, D265H
# notes: as for B2
# B19: human IgG2 anti-mouse CD40 surface displayed antibody, S267D (antibody, name in EU numbering)
# light chain (with the P2A rest): B1 light chain (with the P2A rest)
# heavy chain: B1 heavy chain with S262D, D263H
# notes: as for B1
# B20: human IgG2 anti-mouse CD40 surface displayed antibody, P271C (antibody, name in EU numbering)
# light chain (with the P2A rest): B1 light chain (with the P2A rest)
# heavy chain: B1 heavy chain with D263H, P266C
# notes: as for B1
# B21: human IgG2 anti-mouse CD40 surface displayed antibody, S267M/P271C (antibody, name in EU numbering)
# light chain (with the P2A rest): B1 light chain (with the P2A rest)
# heavy chain: B1 heavy chain with S262M, D263H, P266C
# notes: as for B2
# Target: T1, Biotin-FcγRIIB (human FcγRIIB, Sino …)
# Test: NGS after FACS sort of 3T3-displayed Library2 for biotin-FcγRIIB binding
Enrichment factor (percentage after sorting/percentage before sorting),Increased factor (enrichment factor/wild-type enrichment factor),Binder
1.54,2.68,B1
3.83,6.68,B2
4.31,7.52,B3
1.79,3.5,B4
42.2,73.5,B5
19.2,33.4,B6
1.48,2.57,B7
1000,1740,B8
37.4,65.1,B9
1.32,2.31,B10
5.27,9.19,B11
1.69,2.94,B12
22.1,38.4,B13
24,41.8,B14
8.64,15.1,B15
3.17,5.52,B16
8.63,15,B17
42.7,74.3,B18
2.11,3.67,B19
17.1,29.9,B20
32.1,56,B21
